From the supplement of paper PMC9112550, “Optimization of the antimicrobial peptide Bac7 by deep mutational scanning” (BMC Biology, 2022) come the findings set out here.

This data set relates to Escherichia coli TOP10. The data set is described as follows: shrunken log2 fold change of peptide-encoding DNA abundance (4.5 h post-induction vs induction); higher = less antimicrobial activity (less host growth inhibition). The following applies: time post-induction: 4.5 h; library: site-saturation at positions 5, 18, 19, 20.
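Also: peptides expressed intracellularly from a pBAD plasmid library in pooled LB shake-flask culture, induced with 0.3% L-arabinose, DNA abundance read by NGS, three biological replicates, DESeq2 with apeglm shrinkage.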

In the case of RRIRLRPPRLPRPRPRPPFMPRP, the “shrunken log2 fold change” value came out at 0.086.
For the sequence RRIRYRPPRLPRPRPRPLHFPRP, the “shrunken log2 fold change” value was -0.0434.
Under RRIRNRPPRLPRPRPRPPCCPRP stands 0.123; under RRIRFRPPRLPRPRPRPIWLPRP, -0.17.
Take RRIRLRPPRLPRPRPRPHDKPRP: the “shrunken log2 fold change” value was 0.0709.
As for RRIRPRPPRLPRPRPRPCKPPRP, the “shrunken log2 fold change” value was -0.136.
The result for RRIRRRPPRLPRPRPRPNCRPRP reads 0.563; that for RRIRARPPRLPRPRPRPSPAPRP, 0.616.
For RRIRNRPPRLPRPRPRPHTMPRP, the “shrunken log2 fold change” value was -0.298.
Turning to RRIRKRPPRLPRPRPRPTFEPRP, the “shrunken log2 fold change” value is 0.312.
Take RRIRIRPPRLPRPRPRPPCKPRP: the “shrunken log2 fold change” value was -0.422.
For RRIRGRPPRLPRPRPRPSSNPRP, the “shrunken log2 fold change” value was 0.369.
On to RRIRTRPPRLPRPRPRPIEDPRP, for which the “shrunken log2 fold change” value stood at 0.0177.
Under RRIRYRPPRLPRPRPRPYMDPRP stands -0.14; under RRIRQRPPRLPRPRPRPRVRPRP, 0.329.
The result for RRIRERPPRLPRPRPRPIGKPRP reads 0.133; that for RRIRIRPPRLPRPRPRPLGGPRP, 0.00908.
In the case of RRIRQRPPRLPRPRPRPRVWPRP, the “shrunken log2 fold change” value was 0.163.
RRIRSRPPRLPRPRPRPHKYPRP: the “shrunken log2 fold change” value was -0.377.
As to RRIRMRPPRLPRPRPRPKNYPRP, the “shrunken log2 fold change” value was determined as 0.0737.
For the sequence RRIRARPPRLPRPRPRPCEEPRP, the “shrunken log2 fold change” value worked out at 0.622.
With RRIRIRPPRLPRPRPRPSPVPRP, the “shrunken log2 fold change” value was -0.297.
The result for RRIRKRPPRLPRPRPRPCRLPRP reads -0.298.
Turning to RRIRPRPPRLPRPRPRPPRVPRP, the “shrunken log2 fold change” value stood at 0.447.
The result for RRIRNRPPRLPRPRPRPMGDPRP reads -0.00663.
Consider RRIRCRPPRLPRPRPRPIPPPRP, for which the “shrunken log2 fold change” value came out at 0.265.
As to RRIRSRPPRLPRPRPRPSYKPRP, the “shrunken log2 fold change” value was -0.659.
For the sequence RRIRNRPPRLPRPRPRPLVKPRP, the “shrunken log2 fold change” value was -0.741.
As for RRIRYRPPRLPRPRPRPLMLPRP, the “shrunken log2 fold change” value was -1.32.
On to RRIRERPPRLPRPRPRPLRYPRP, for which the “shrunken log2 fold change” value was -0.0652.
RRIRSRPPRLPRPRPRPECAPRP: the “shrunken log2 fold change” value is 0.784.
Regarding RRIRIRPPRLPRPRPRPLVAPRP, the “shrunken log2 fold change” value was -0.0566.
In the case of RRIRYRPPRLPRPRPRPFTDPRP, the “shrunken log2 fold change” value is -0.583.
RRIRRRPPRLPRPRPRPTLNPRP: the “shrunken log2 fold change” value stood at 0.511.
Under RRIRHRPPRLPRPRPRPTWCPRP stands 0.582; under RRIRPRPPRLPRPRPRPWFCPRP, 0.138; under RRIRKRPPRLPRPRPRPMSNPRP, -0.00773.
RRIRSRPPRLPRPRPRPGWSPRP: the “shrunken log2 fold change” value worked out at 0.334.
Turning to RRIRFRPPRLPRPRPRPDWPPRP, the “shrunken log2 fold change” value was -0.0836.
On to RRIRVRPPRLPRPRPRPNRMPRP, for which the “shrunken log2 fold change” value was -0.093.
Under RRIRQRPPRLPRPRPRPYRMPRP stands 3.17; under RRIRSRPPRLPRPRPRPHPYPRP, -0.807; under RRIRARPPRLPRPRPRPLEKPRP, 0.439.
In the case of RRIRDRPPRLPRPRPRPSAEPRP, the “shrunken log2 fold change” value was found to be 0.162.
With RRIRVRPPRLPRPRPRPGCYPRP, the “shrunken log2 fold change” value was -0.112.
As for RRIRQRPPRLPRPRPRPAKHPRP, the “shrunken log2 fold change” value worked out at 0.204.
The result for RRIRYRPPRLPRPRPRPPKLPRP reads -0.172.
The result for RRIRIRPPRLPRPRPRPMCWPRP reads -0.00326.
For the sequence RRIRYRPPRLPRPRPRPMQIPRP, the “shrunken log2 fold change” value was -6.27e-05.
As to RRIRGRPPRLPRPRPRPNCHPRP, the “shrunken log2 fold change” value stood at 0.415.
Turning to RRIRRRPPRLPRPRPRPLGHPRP, the “shrunken log2 fold change” value stood at 0.203.
Turning to RRIRERPPRLPRPRPRPSQAPRP, the “shrunken log2 fold change” value was found to be 0.151.
Turning to RRIRMRPPRLPRPRPRPESIPRP, the “shrunken log2 fold change” value was determined as 0.522.
For RRIRARPPRLPRPRPRPAMEPRP, the “shrunken log2 fold change” value worked out at 0.372.
On to RRIRYRPPRLPRPRPRPSGTPRP, for which the “shrunken log2 fold change” value is -0.175.
For RRIRQRPPRLPRPRPRPPTDPRP, the “shrunken log2 fold change” value stood at 0.0902.
On to RRIRCRPPRLPRPRPRPLWCPRP, for which the “shrunken log2 fold change” value was -0.208.
Consider RRIRYRPPRLPRPRPRPMLEPRP, for which the “shrunken log2 fold change” value was found to be 0.0653.
For RRIRVRPPRLPRPRPRPKHDPRP, the “shrunken log2 fold change” value is -0.31.
As for RRIRLRPPRLPRPRPRPMHLPRP, the “shrunken log2 fold change” value is -0.0248.
On to RRIRPRPPRLPRPRPRPVFIPRP, for which the “shrunken log2 fold change” value was -0.235.
As for RRIRGRPPRLPRPRPRPTQYPRP, the “shrunken log2 fold change” value came to 0.337.
On to RRIRYRPPRLPRPRPRPGNIPRP, for which the “shrunken log2 fold change” value was -0.153.
Turning to RRIRFRPPRLPRPRPRPHAKPRP, the “shrunken log2 fold change” value turned out to be 0.229.
On to RRIRSRPPRLPRPRPRPNNAPRP, for which the “shrunken log2 fold change” value was -0.38.
For the sequence RRIRMRPPRLPRPRPRPFLPPRP, the “shrunken log2 fold change” value is -0.346.
With RRIRNRPPRLPRPRPRPAYSPRP, the “shrunken log2 fold change” value is -0.189.
On to RRIRERPPRLPRPRPRPNKGPRP, for which the “shrunken log2 fold change” value was -0.164.
Under RRIRNRPPRLPRPRPRPSKRPRP stands -0.0331; under RRIRPRPPRLPRPRPRPPHPPRP, 0.292; under RRIRNRPPRLPRPRPRPHKCPRP, -0.0755.
Turning to RRIRERPPRLPRPRPRPGWAPRP, the “shrunken log2 fold change” value is 0.487.
In the case of RRIRWRPPRLPRPRPRPKSGPRP, the “shrunken log2 fold change” value is -0.0248.
On to RRIRKRPPRLPRPRPRPEGGPRP, for which the “shrunken log2 fold change” value was 0.543.
Take RRIRYRPPRLPRPRPRPHVPPRP: the “shrunken log2 fold change” value is -0.277.
With RRIRPRPPRLPRPRPRPVGGPRP, the “shrunken log2 fold change” value is 0.408.
In the case of RRIRARPPRLPRPRPRPTPDPRP, the “shrunken log2 fold change” value worked out at 0.848.
As for RRIRSRPPRLPRPRPRPATHPRP, the “shrunken log2 fold change” value was -0.0838.
In the case of RRIRSRPPRLPRPRPRPPKAPRP, the “shrunken log2 fold change” value is -0.259.
As for RRIRLRPPRLPRPRPRPNFKPRP, the “shrunken log2 fold change” value is -0.206.
For RRIRKRPPRLPRPRPRPKQQPRP, the “shrunken log2 fold change” value was found to be 0.0737.
For the sequence RRIRIRPPRLPRPRPRPAKNPRP, the “shrunken log2 fold change” value was found to be 2.21.
The result for RRIRMRPPRLPRPRPRPAENPRP reads 0.084; that for RRIRLRPPRLPRPRPRPTWHPRP, 0.174.
Under RRIRVRPPRLPRPRPRPSWKPRP stands -0.0781.
Take RRIRMRPPRLPRPRPRPCLMPRP: the “shrunken log2 fold change” value was 0.0359.
Take RRIRPRPPRLPRPRPRPFIRPRP: the “shrunken log2 fold change” value was 0.00477.
For RRIRNRPPRLPRPRPRPGFLPRP, the “shrunken log2 fold change” value is -0.105.
The result for RRIRHRPPRLPRPRPRPQYFPRP reads -0.439; that for RRIRVRPPRLPRPRPRPPNAPRP, 0.295.
Consider RRIRPRPPRLPRPRPRPCMPPRP, for which the “shrunken log2 fold change” value was -0.534.
Under RRIRRRPPRLPRPRPRPRPCPRP stands 0.384; under RRIRDRPPRLPRPRPRPAFFPRP, 0.342.
Consider RRIRFRPPRLPRPRPRPMPSPRP, for which the “shrunken log2 fold change” value came out at 0.0917.
Consider RRIRARPPRLPRPRPRPQTHPRP, for which the “shrunken log2 fold change” value came out at 0.491.
With RRIRRRPPRLPRPRPRPNHDPRP, the “shrunken log2 fold change” value came to 0.196.
Take RRIRSRPPRLPRPRPRPDNGPRP: the “shrunken log2 fold change” value is -0.232.
The result for RRIRQRPPRLPRPRPRPKKPPRP reads 0.0619; that for RRIRIRPPRLPRPRPRPLPLPRP, 0.0472.
With RRIRERPPRLPRPRPRPLIMPRP, the “shrunken log2 fold change” value is -0.781.
Under RRIRQRPPRLPRPRPRPNGAPRP stands 0.451; under RRIRIRPPRLPRPRPRPYMHPRP, -1.32.
In the case of RRIRLRPPRLPRPRPRPYCEPRP, the “shrunken log2 fold change” value was -0.135.
Turning to RRIRNRPPRLPRPRPRPKLKPRP, the “shrunken log2 fold change” value worked out at 0.2.
RRIRQRPPRLPRPRPRPKPGPRP: the “shrunken log2 fold change” value was found to be 0.285.
Under RRIRYRPPRLPRPRPRPSRVPRP stands -0.115.
Consider RRIRQRPPRLPRPRPRPGNRPRP, for which the “shrunken log2 fold change” value was -0.0286.
In the case of RRIRIRPPRLPRPRPRPIELPRP, the “shrunken log2 fold change” value came out at 0.0658.
Take RRIRMRPPRLPRPRPRPSCGPRP: the “shrunken log2 fold change” value amounted to 0.687.
Take RRIRYRPPRLPRPRPRPLYAPRP: the “shrunken log2 fold change” value is -1.49.
As to RRIRCRPPRLPRPRPRPKRMPRP, the “shrunken log2 fold change” value turned out to be 0.118.
In the case of RRIRMRPPRLPRPRPRPGVMPRP, the “shrunken log2 fold change” value came out at 0.633.
Take RRIRTRPPRLPRPRPRPVKSPRP: the “shrunken log2 fold change” value was -0.157.
Under RRIRLRPPRLPRPRPRPMKEPRP stands -0.019; under RRIRARPPRLPRPRPRPDRDPRP, -0.0499; under RRIRKRPPRLPRPRPRPQWWPRP, 0.243.
As for RRIRWRPPRLPRPRPRPFKFPRP, the “shrunken log2 fold change” value is -0.174.
Regarding RRIRTRPPRLPRPRPRPHMFPRP, the “shrunken log2 fold change” value is -0.0142.
The result for RRIRTRPPRLPRPRPRPQHSPRP reads -0.183; that for RRIRDRPPRLPRPRPRPVGSPRP, 0.519; that for RRIRMRPPRLPRPRPRPWHVPRP, -0.0444.
On to RRIRCRPPRLPRPRPRPTDNPRP, for which the “shrunken log2 fold change” value was -0.58.
On to RRIRWRPPRLPRPRPRPPMIPRP, for which the “shrunken log2 fold change” value was -0.103.
Turning to RRIRMRPPRLPRPRPRPYFCPRP, the “shrunken log2 fold change” value was -0.352.
RRIRHRPPRLPRPRPRPMRSPRP: the “shrunken log2 fold change” value was -0.00134.
